Measured values published in article PMC13544220, “Glycemic and bodyweight effects of GIPR coding variation reflect differences in surface expression and intrinsic functional impairment” (Science Advances, 2026).

How the values were obtained:
[1] = tested on: wild-type and variant SNAP-GIPR; assay: Surface SNAP-GIPR expression (SNAP-tag labelling) in AD293 cells; type: cell-based, human; details: for AD293 Surface: Fig S3E, mean; for Surface SNAP-GIPR expression: sheet Fig 1C;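 as to all read-outs here: scaled to the experimental average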
In short: (§1)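 Surface GIPR is quantified from wide-field images after labelling intact transfected cells with a membrane-impermeant SNAP probe at 500 nM for 10 min at room temperature. Specific signal, corrected for nontransfected cells, is normalized to the experiment-wide average or to wild-type.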

[2] = tested on: wild-type and variant SNAP-GIPR; assay: Surface SNAP-GIPR expression (SNAP-tag labelling) in INS-1 cells; type: cell-based, human; details: Fig 4G; Mean
In short: as §1

[3] = tested on: wild-type and variant SNAP-GIPR; assay: Single-concentration GIP cAMP response by HTRF in INS-1 cells; type: cell-based, human; details: Fig S3E, mean
Experimental: All variants were tested in parallel on each occasion to control for transfection efficiency differences between experiments.

[4] = tested on: wild-type and variant SNAP-GIPR in Gipr-/- mouse islets; assay: Insulin secretion from Gipr-/- mouse islets transduced with GIPR adenoviruses; type: cell-based; details: Fig 6D, Gipr-/- mouse islets
Experimental: (§2) Isolated islets used for insulin secretion assays were treated in 1.5-ml microcentrifuge tubes. Eight-ten islets were used per well with two-three technical replicates per condition. […] At the end of the treatment, supernatants containing the secreted insulin or glucagon were collected, centrifuged at 1000g for 5 min, and transferred to fresh tubes. […] The lysates were sonicated 3× for 10 s in a water bath and centrifuged at 10,000g for 10 min, and the supernatants were collected. The samples were stored at −20°C until the insulin or glucagon concentrations were determined using an Insulin Ultra-Sensitive HTRF Assay kit (62IN2PEG, Revvity) or an HTRF Glucagon Detection Kit (62CGLPEG, Revvity) respectively, according to the manufacturer’s instructions. GraphPad Prism 9.0 was used for the generation of the standard curve and sample concentration extrapolation. The total insulin or glucagon content was calculated by adding the secreted insulin to the insulin content of the lysates, and secretion was reported as the percentage release of total. The percent secretion of islets treated with agonist was normalized to that of islets treated with vehicle and reported as a fold change.

[5] = tested on: wild-type and variant SNAP-GIPR in wild-type mouse islets; assay: Insulin secretion from wild-type mouse islets transduced with GIPR adenoviruses; type: cell-based; details: Fig 6F
Experimental: as §2, with “The samples were stored at −20°C until the insulin or glucagon concentrations were determined using an Insulin Ultra-Sensitive HTRF Assay kit (62IN2PEG, Revvity) or an HTRF Glucagon Detection Kit (62CGLPEG, Revvity) respectively, according to the manufacturer’s instructions.” left out

[6] = tested on: wild-type and variant SNAP-GIPR in Gipr-/- mouse islets; assay: Glucagon secretion from Gipr-/- mouse islets transduced with GIPR adenoviruses; type: cell-based; details: Fig S6C, Gipr-/- mouse islets
Experimental: as §2

[7] = column repeated, paired with cAMP 100 nM

B1: R101H (protein)
chain: RAETGSKGQTAGELYQRWERYRRECQETLAAAEPPSGLACNGSFDMYVCWDYAAPNATARASCPWYLPWHHHVAAGFVLHQCGSDGQWGLWRDHTQCENPEKNEAFLDQRLILERLQVMYTVGYSLSLATLLLALLILSLFRRLHCTRNYIHINLFTSFMLRAAAILSRDRLLPRPGPYLGDQALALWNQALAACRTAQIVTQYCVGANYTWLLVEGVYLHSLLVLVGGSEEGHFRYYLLLGWGAPALFVIPWVIVRYLYENTQCWERNEVKAIWWIIRTPILMTILINFLIFIRILGILLSKLRTRQMRCRDYRLRLARSTLTLVPLLGVHEVVFAPVTEEQARGALRFAKLGFEIFLSSFQGFLVSVLYCFINKEVQSEIRRGWHHCRLRRSLGEEQRQLPERAFRALPSGSGPGEVPTSRGLSSGTLPGPGNEASRELESYC
- AD293 Surface [1, 7]: 0.3592
- AD293 Surface ([1]; paired with cAMP 100 pM): 0.3592
- Surface SNAP-GIPR expression ([1]; replicate 1): 0.3042
- Surface SNAP-GIPR expression ([1]; replicate 2): 0.5275
- Surface SNAP-GIPR expression ([1]; replicate 3): 0.05814
- Surface SNAP-GIPR expression ([1]; replicate 4): 0.1831
- Surface SNAP-GIPR expression ([1]; replicate 5): 0.7685
- Surface SNAP-GIPR expression ([1]; replicate 6): 0.323
- Surface SNAP-GIPR expression ([1]; replicate 7): 0.4744
- Surface SNAP-GIPR expression ([1]; replicate 8): 0.4381
- Surface SNAP-GIPR expression ([1]; replicate 9): 0.4341
- Surface SNAP-GIPR expression ([1]; replicate 10): 0.6442
- Surface SNAP-GIPR expression ([1]; replicate 11): 0.4281
- Surface SNAP-GIPR expression ([1]; replicate 12): 0.4464
- Surface SNAP-GIPR expression ([1]; replicate 13): 0.04565
- Surface SNAP-GIPR expression ([1]; replicate 14): 0.1907
- Surface SNAP-GIPR expression ([1]; replicate 15): 0.4569
- Surface SNAP-GIPR expression ([1]; replicate 16): 0.5164
- Surface SNAP-GIPR expression ([1]; replicate 17): 0.5151
- Surface SNAP-GIPR expression ([1]; replicate 18): 0.4251
- Surface SNAP-GIPR expression ([1]; replicate 19): 0.384
- Surface SNAP-GIPR expression ([1]; replicate 20): 0.5015
- Surface SNAP-GIPR expression ([1]; replicate 21): 0.5316
- Surface SNAP-GIPR expression ([1]; replicate 22): 0.4149
- Surface SNAP-GIPR expression ([1]; replicate 23): 0.4406
- Surface SNAP-GIPR expression ([1]; replicate 24): 0.4166
- Surface SNAP-GIPR expression ([1]; replicate 25): 0.3346
- Surface SNAP-GIPR expression ([1]; replicate 26): 0.3683
- Surface SNAP-GIPR expression ([1]; replicate 27): 0.2116
- Surface SNAP-GIPR expression ([1]; replicate 28): 0.1755
- Surface SNAP-GIPR expression ([1]; replicate 29): 0.2709
- Surface SNAP-GIPR expression ([1]; replicate 30): 0.3405
- Surface SNAP-GIPR expression ([1]; replicate 31): 0.1773
- Surface SNAP-GIPR expression ([1]; replicate 32): 0.3176
- Surface SNAP-GIPR expression ([1]; replicate 33): 0.2814
- Surface SNAP-GIPR expression ([1]; replicate 34): 0.3758
- Surface SNAP-GIPR expression ([1]; replicate 35): 0.422
- Surface SNAP-GIPR expression ([1]; replicate 36): 0.4366
- Surface SNAP-GIPR expression ([1]; replicate 37): 0.2975
- Surface SNAP-GIPR expression ([1]; replicate 38): 0.1954
- Surface SNAP-GIPR expression ([1]; replicate 39): 0.2342
- Surface SNAP-GIPR expression ([1]; replicate 40): 0.2038
- Surface SNAP-GIPR expression ([1]; replicate 41): 0.2137
- Surface expression [2]: 0.19
- INS-1 cAMP (100 nM) [3]: -0.01312
- Insulin secretion, ratio G11 + GIP / G11 ([4]; replicate 1): 2.4659
- Insulin secretion, ratio G11 + GIP / G11 ([4]; replicate 2): 2.05
- Insulin secretion, ratio G11 + GIP / G11 ([4]; replicate 3): 1.407
- Insulin secretion, ratio G11 + GIP / G11 ([4]; replicate 4): 1.963
- Insulin secretion, ratio G11 + GIP / G11 ([5]; replicate 1): 1.571
- Insulin secretion, ratio G11 + GIP / G11 ([5]; replicate 2): 6.006
- Insulin secretion, ratio G11 + GIP / G11 ([5]; replicate 3): 2.0139
- Insulin secretion, ratio G11 + GIP / G11 ([5]; replicate 4): 1.2264
- Insulin secretion, ratio G11 + GIP / G11 ([5]; replicate 5): 0.7288
- Glucagon secretion, ratio G0.5 + GIP / G0.5 ([6]; replicate 1): 1.2225
- Glucagon secretion, ratio G0.5 + GIP / G0.5 ([6]; replicate 2): 1.611
- Glucagon secretion, ratio G0.5 + GIP / G0.5 ([6]; replicate 3): 0.9333
- Glucagon secretion, ratio G0.5 + GIP / G0.5 ([6]; replicate 4): 0.8233

B2: E288G (protein)
chain: RAETGSKGQTAGELYQRWERYRRECQETLAAAEPPSGLACNGSFDMYVCWDYAAPNATARASCPWYLPWHHHVAAGFVLRQCGSDGQWGLWRDHTQCENPEKNEAFLDQRLILERLQVMYTVGYSLSLATLLLALLILSLFRRLHCTRNYIHINLFTSFMLRAAAILSRDRLLPRPGPYLGDQALALWNQALAACRTAQIVTQYCVGANYTWLLVEGVYLHSLLVLVGGSEEGHFRYYLLLGWGAPALFVIPWVIVRYLYENTQCWGRNEVKAIWWIIRTPILMTILINFLIFIRILGILLSKLRTRQMRCRDYRLRLARSTLTLVPLLGVHEVVFAPVTEEQARGALRFAKLGFEIFLSSFQGFLVSVLYCFINKEVQSEIRRGWHHCRLRRSLGEEQRQLPERAFRALPSGSGPGEVPTSRGLSSGTLPGPGNEASRELESYC
- AD293 Surface [1, 7]: 0.1748
- AD293 Surface ([1]; paired with cAMP 100 pM): 0.1748
- Surface SNAP-GIPR expression ([1]; replicate 1): 0.1869
- Surface SNAP-GIPR expression ([1]; replicate 2): 0.267
- Surface SNAP-GIPR expression ([1]; replicate 3): 0.08361
- Surface SNAP-GIPR expression ([1]; replicate 4): 0.1519
- Surface SNAP-GIPR expression ([1]; replicate 5): 0.1987
- Surface SNAP-GIPR expression ([1]; replicate 6): 0.07439
- Surface SNAP-GIPR expression ([1]; replicate 7): 0.7465
- Surface SNAP-GIPR expression ([1]; replicate 8): 0.3261
- Surface SNAP-GIPR expression ([1]; replicate 9): 0.1689
- Surface SNAP-GIPR expression ([1]; replicate 10): 0.2273
- Surface SNAP-GIPR expression ([1]; replicate 11): 0.2845
- Surface SNAP-GIPR expression ([1]; replicate 12): 0.2606
- Surface SNAP-GIPR expression ([1]; replicate 13): 0.07673
- Surface SNAP-GIPR expression ([1]; replicate 14): 0.0817
- Surface SNAP-GIPR expression ([1]; replicate 15): 0.1221
- Surface SNAP-GIPR expression ([1]; replicate 16): 0.1487
- Surface SNAP-GIPR expression ([1]; replicate 17): 0.2042
- Surface SNAP-GIPR expression ([1]; replicate 18): 0.1937
- Surface SNAP-GIPR expression ([1]; replicate 19): 0.1495
- Surface SNAP-GIPR expression ([1]; replicate 20): 0.1825
- Surface SNAP-GIPR expression ([1]; replicate 21): 0.2069
- Surface SNAP-GIPR expression ([1]; replicate 22): 0.1788
- Surface SNAP-GIPR expression ([1]; replicate 23): 0.167
- Surface SNAP-GIPR expression ([1]; replicate 24): 0.1096
- Surface SNAP-GIPR expression ([1]; replicate 25): 0.2053
- Surface SNAP-GIPR expression ([1]; replicate 26): 0.1578
- Surface SNAP-GIPR expression ([1]; replicate 27): 0.0991
- Surface SNAP-GIPR expression ([1]; replicate 28): 0.1213
- Surface SNAP-GIPR expression ([1]; replicate 29): 0.1325
- Surface SNAP-GIPR expression ([1]; replicate 30): 0.1696
- Surface SNAP-GIPR expression ([1]; replicate 31): 0.159
- Surface SNAP-GIPR expression ([1]; replicate 32): 0.181
- Surface SNAP-GIPR expression ([1]; replicate 33): 0.1299
- Surface SNAP-GIPR expression ([1]; replicate 34): 0.1533
- Surface SNAP-GIPR expression ([1]; replicate 35): 0.1527
- Surface SNAP-GIPR expression ([1]; replicate 36): 0.05767
- Surface SNAP-GIPR expression ([1]; replicate 37): 0.09894
- Surface SNAP-GIPR expression ([1]; replicate 38): 0.1179
- Surface SNAP-GIPR expression ([1]; replicate 39): 0.124
- Surface SNAP-GIPR expression ([1]; replicate 40): 0.1489
- Surface SNAP-GIPR expression ([1]; replicate 41): 0.1584
- Surface expression [2]: 0.2232
- INS-1 cAMP (100 nM) [3]: 0.3027
- Insulin secretion, ratio G11 + GIP / G11 ([4]; replicate 1): 2.545
- Insulin secretion, ratio G11 + GIP / G11 ([4]; replicate 2): 0.8478
- Insulin secretion, ratio G11 + GIP / G11 ([4]; replicate 3): 2.186
- Insulin secretion, ratio G11 + GIP / G11 ([4]; replicate 4): 1.083
- Insulin secretion, ratio G11 + GIP / G11 ([5]; replicate 1): 0.8131
- Insulin secretion, ratio G11 + GIP / G11 ([5]; replicate 2): 1.885
- Insulin secretion, ratio G11 + GIP / G11 ([5]; replicate 3): 1.6101
- Insulin secretion, ratio G11 + GIP / G11 ([5]; replicate 4): 1.127
- Insulin secretion, ratio G11 + GIP / G11 ([5]; replicate 5): 2.303
- Glucagon secretion, ratio G0.5 + GIP / G0.5 ([6]; replicate 1): 2.014
- Glucagon secretion, ratio G0.5 + GIP / G0.5 ([6]; replicate 2): 1.482
- Glucagon secretion, ratio G0.5 + GIP / G0.5 ([6]; replicate 3): 1.8204
- Glucagon secretion, ratio G0.5 + GIP / G0.5 ([6]; replicate 4): 1.525
